51 variants from the Human Domainome abundance scans (Beltran et al. 2025) can be followed below.

± gives the uncertainty stated by the source.

The chains are these.
B1: Max-interacting protein 1, residues 70 to 120; numbered along this chain, P50539 (parent)
chain: STHNELEKNRRAHLRLCLERLKVLIPLGPDCTRHTTLGLLNKAKAHIKKLE

The data set covers variants of B1. In words: abundance fitness (aPCA) (normalised: wild type 0, dead -1); higher = more abundant; growth selection in yeast, the domain comes from the species named. As to conditions: Homo sapiens.
For STHNELEKNRRAHLRLCLERLKVLIPLGPDCTRHTTRGLLNKAKAHIKKLE, the abundance fitness worked out at 0.253 ± 0.089.
For the variant STHNELEKNRRAHLRLCLERLKVLIPLGPDCTRHTTMGLLNKAKAHIKKLE, the abundance fitness was -0.124 ± 0.14.
Regarding STHNELEKNRRAHLRLCLERLKVLIPLGPDCTRHTTVGLLNKAKAHIKKLE, the abundance fitness is -0.023 ± 0.089.
For STHNELEKNRRAHLRLCLERLKVLIPLGPDCTRHTTTGLLNKAKAHIKKLE, the abundance fitness is 0.042 ± 0.13.
Next, STHNELEKNRRAHLRLCLERLKVLIPLGPDCTRHTTKGLLNKAKAHIKKLE: 0.073 ± 0.11; STHNELEKNRRAHLRLCLERLKVLIPLGPDCTRHTTYGLLNKAKAHIKKLE: -0.172 ± 0.13; STHNELEKNRRAHLRLCLERLKVLIPLGPDCTRHTTNGLLNKAKAHIKKLE: -0.292 ± 0.21.
With STHNELEKNRRAHLRLCLERLKVLIPLGPDCTRHTTQGLLNKAKAHIKKLE, the abundance fitness was -0.154 ± 0.12.
With STHNELEKNRRAHLRLCLERLKVLIPLGPDCTRHTTWGLLNKAKAHIKKLE, the abundance fitness was found to be 0.125 ± 0.12.
For STHNELEKNRRAHLRLCLERLKVLIPLGPDCTRHTTPGLLNKAKAHIKKLE, the abundance fitness was -0.624 ± 0.15.
With STHNELEKNRRAHLRLCLERLKVLIPLGPDCTRHTTSGLLNKAKAHIKKLE the figure was 0.06 ± 0.11; with STHNELEKNRRAHLRLCLERLKVLIPLGPDCTRHTTLGLMNKAKAHIKKLE, -0.098 ± 0.13; with STHNELEKNRRAHLRLCLERLKVLIPLGPDCTRHTTLGLDNKAKAHIKKLE, -1.13 ± 0.23.
In the case of STHNELEKNRRAHLRLCLERLKVLIPLGPDCTRHTTLGLSNKAKAHIKKLE, the abundance fitness is -0.91 ± 0.12.
As to STHNELEKNRRAHLRLCLERLKVLIPLGPDCTRHTTLGLYNKAKAHIKKLE, the abundance fitness is -0.617 ± 0.33.
Consider STHNELEKNRRAHLRLCLERLKVLIPLGPDCTRHTTLGLRNKAKAHIKKLE, for which the abundance fitness was -0.698 ± 0.088.
For the variant STHNELEKNRRAHLRLCLERLKVLIPLGPDCTRHTTLGLQNKAKAHIKKLE, the abundance fitness is -0.933 ± 0.19.
For the variant STHNELEKNRRAHLRLCLERLKVLIPLGPDCTRHTTLGLPNKAKAHIKKLE, the abundance fitness is -0.89 ± 0.21.
Take STHNELEKNRRAHLRLCLERLKVLIPLGPDCTRHTTLGLNNKAKAHIKKLE: the abundance fitness was -0.584 ± 0.3.
For the variant STHNELEKNRRAHLRLCLERLKVLIPLGPDCTRHTTLGLVNKAKAHIKKLE, the abundance fitness was -0.099 ± 0.085.
With STHNELEKNRRAHLRLCLERLKVLIPLGPDCTRHTTLGLHNKAKAHIKKLE, the abundance fitness is -0.86 ± 0.32.
Next, STHNELEKNRRAHLRLCLERLKVLIPLGPDCTRHTTLGLTNKAKAHIKKLE: -0.68 ± 0.15.
For the variant STHNELEKNRRAHLRLCLERLKVLIPLGPDCTRHTTLGLWNKAKAHIKKLE, the abundance fitness turned out to be 0.323 ± 0.083.
Regarding STHNELEKNRRAHLRLCLERLKVLIPLGPDCTRHTTLGLANKAKAHIKKLE, the abundance fitness was -0.553 ± 0.11.
Regarding STHNELEKNRRAHLRLCLERLKVLIPLGPDCTRHTTLGLCNKAKAHIKKLE, the abundance fitness is -0.926 ± 0.16.
With STHNELEKNRRAHLRLCLERLKVLIPLGPDCTRHTTLGLENKAKAHIKKLE, the abundance fitness is -0.857 ± 0.13.
Turning to STHNELEKNRRAHLRLCLERLKVLIPLGPDCTRHTTLGLFNKAKAHIKKLE, the abundance fitness was 0.033 ± 0.11.
As for STHNELEKNRRAHLRLCLERLKVLIPLGPDCTRHTTLGLKNKAKAHIKKLE, the abundance fitness is -0.793 ± 0.24.
As to STHNELEKNRRAHLRLCLERLKVLIPLGPDCTRHTTLGLLNMAKAHIKKLE, the abundance fitness was -0.452 ± 0.16.
STHNELEKNRRAHLRLCLERLKVLIPLGPDCTRHTTLGLLNSAKAHIKKLE: the abundance fitness was -0.338 ± 0.094.
STHNELEKNRRAHLRLCLERLKVLIPLGPDCTRHTTLGLLNEAKAHIKKLE: the abundance fitness was -0.716 ± 0.17.
For the variant STHNELEKNRRAHLRLCLERLKVLIPLGPDCTRHTTLGLLNGAKAHIKKLE, the abundance fitness was -0.421 ± 0.08.
As to STHNELEKNRRAHLRLCLERLKVLIPLGPDCTRHTTLGLLNLAKAHIKKLE, the abundance fitness is -0.641 ± 0.1.
Turning to STHNELEKNRRAHLRLCLERLKVLIPLGPDCTRHTTLGLLNNAKAHIKKLE, the abundance fitness is -0.598 ± 0.18.
Take STHNELEKNRRAHLRLCLERLKVLIPLGPDCTRHTTLGLLNDAKAHIKKLE: the abundance fitness was -0.992 ± 0.18.
Consider STHNELEKNRRAHLRLCLERLKVLIPLGPDCTRHTTLGLLNHAKAHIKKLE, for which the abundance fitness is -0.813 ± 0.19.
Next, STHNELEKNRRAHLRLCLERLKVLIPLGPDCTRHTTLGLLNRAKAHIKKLE: -0.069 ± 0.076; STHNELEKNRRAHLRLCLERLKVLIPLGPDCTRHTTLGLLNCAKAHIKKLE: -0.185 ± 0.1; STHNELEKNRRAHLRLCLERLKVLIPLGPDCTRHTTLGLLNQAKAHIKKLE: -0.44 ± 0.13.
Turning to STHNELEKNRRAHLRLCLERLKVLIPLGPDCTRHTTLGLLNYAKAHIKKLE, the abundance fitness is -0.684 ± 0.15.
In the case of STHNELEKNRRAHLRLCLERLKVLIPLGPDCTRHTTLGLLNWAKAHIKKLE, the abundance fitness is -0.23 ± 0.087.
Take STHNELEKNRRAHLRLCLERLKVLIPLGPDCTRHTTLGLLNFAKAHIKKLE: the abundance fitness was -0.256 ± 0.13.
Next, STHNELEKNRRAHLRLCLERLKVLIPLGPDCTRHTTLGLLNIAKAHIKKLE: -0.284 ± 0.16; STHNELEKNRRAHLRLCLERLKVLIPLGPDCTRHTTLGLLNTAKAHIKKLE: -0.196 ± 0.12; STHNELEKNRRAHLRLCLERLKVLIPLGPDCTRHTTLGLLNPAKAHIKKLE: -0.808 ± 0.16.
For the variant STHNELEKNRRAHLRLCLERLKVLIPLGPDCTRHTTLGLLNAAKAHIKKLE, the abundance fitness is -0.319 ± 0.095.
With STHNELEKNRRAHLRLCLERLKVLIPLGPDCTRHTTLSLLNKAKAHIKKLE, the abundance fitness is -0.087 ± 0.089.
Consider STHNELEKNRRAHLRLCLERLKVLIPLGPDCTRHTTLCLLNKAKAHIKKLE, for which the abundance fitness was -0.229 ± 0.13.
For STHNELEKNRRAHLRLCLERLKVLIPLGPDCTRHTTLHLLNKAKAHIKKLE, the abundance fitness is -0.168 ± 0.18.
With STHNELEKNRRAHLRLCLERLKVLIPLGPDCTRHTTLTLLNKAKAHIKKLE, the abundance fitness was -0.069 ± 0.1.
On to STHNELEKNRRAHLRLCLERLKVLIPLGPDCTRHTTLALLNKAKAHIKKLE, for which the abundance fitness was -0.055 ± 0.085.
